# Results taken from patent publication US20250043028A1 (Hoffmann-La Roche, published 2025).
# T1: human CEA expressed on tumor cells (LS-174T, MKN-45, MC38-huCEA) (human, UniProt P06731 35-685)
# T1 sequence (looked up): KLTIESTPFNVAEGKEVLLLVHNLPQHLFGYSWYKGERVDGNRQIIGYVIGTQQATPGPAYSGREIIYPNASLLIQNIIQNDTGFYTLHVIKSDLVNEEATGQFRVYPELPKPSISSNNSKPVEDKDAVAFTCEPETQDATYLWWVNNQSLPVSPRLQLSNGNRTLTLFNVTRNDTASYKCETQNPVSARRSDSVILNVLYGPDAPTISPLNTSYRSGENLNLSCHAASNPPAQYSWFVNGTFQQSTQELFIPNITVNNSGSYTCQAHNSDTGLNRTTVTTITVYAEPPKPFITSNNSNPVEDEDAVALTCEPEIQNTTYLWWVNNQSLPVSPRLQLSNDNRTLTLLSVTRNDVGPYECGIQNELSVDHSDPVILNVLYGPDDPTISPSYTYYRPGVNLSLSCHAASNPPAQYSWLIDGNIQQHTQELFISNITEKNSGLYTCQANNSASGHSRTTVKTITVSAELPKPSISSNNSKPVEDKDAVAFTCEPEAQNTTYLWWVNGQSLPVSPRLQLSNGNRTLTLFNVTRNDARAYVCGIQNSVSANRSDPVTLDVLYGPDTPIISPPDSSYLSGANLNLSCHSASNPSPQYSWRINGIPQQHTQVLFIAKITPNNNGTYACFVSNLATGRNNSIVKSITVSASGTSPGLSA
# B1: “2+1 IgG Crossfab”; VL/VH exchange (M4-3 ML2/V9) (anti-MCSP/anti-huCD3) (bispecific antibody)
# chain 1: EVQLVESGGGLVQPGGSLRLSCAASGYSFTGYTMNWVRQAPGKGLEWVALINPYKGVSTYNQKFKDRFTISVDKSKNTAYLQMNSLRAEDTAVYYCARSGYYGDSDWYFDVWGQGTLVTVSSASVAAPSVFIFPPSDEQLKSGTASVVCLLNNFYPREAKVQWKVDNALQSGNSQESVTEQDSKDSTYSLSSTLTLSKADYEKHKVYACEVTHQGLSSPVTKSFNRGEC
# chain 2: not shown
# chain 3: not shown
# chain 4: QVQLQESGPGLVKPSQTLSLTCTVSGGSITSGYYWNWIRQHPGKGLEWIGYITYDGSNNYNPSLKSRVTISRDTSKNQFSLKLSSVTAADTAVYYCADFDYWGQGTLVTVSSASTKGPSVFPLAPSSKSTSGGTAALGCLVKDYFPEPVTVSWNSGALTSGVHTFPAVLQSSGLYSLSSVVTVPSSSLGTQTYICNVNHKPSNTKVDKKVEPKSCDKTHTCPPCPAPEAAGGPSVFLFPPKPKDTLMISRTPEVTCVVVDVSHEDPEVKFNWYVDGVEVHNAKTKPREEQYNSTYRVVSVLTVLHQDWLNGKEYKCKVSNKALGAPIEKTISKAKGQPREPQVCTLPPSRDELTKNQVSLSCAVKGFYPSDIAVEWESNGQPENNYKTTPPVLDSDGSFFLVSKLTVDKSRWQQGNVFSCSVMHEALHNHYTQKSLSLSPGK
# B2: “1+1 IgG Crossfab light chain (LC) fusion” (CH1A1A/V9) (anti-CEA/anti-huCD3) (bispecific antibody)
# chain 1: DIQMTQSPSSLSASVGDRVTITCRASQDIRNYLNWYQQKPGKAPKLLIYYTSRLESGVPSRFSGSGSGTDYTLTISSLQPEDFATYYCQQGNTLPWTFGQGTKVEIKSSASTKGPSVFPLAPSSKSTSGGTAALGCLVKDYFPEPVTVSWNSGALTSGVHTFPAVLQSSGLYSLSSVVTVPSSSLGTQTYICNVNHKPSNTKVDKKVEPKSC
# chain 2: DIQMTQSPSSLSASVGDRVTITCKASAAVGTYVAWYQQKPGKAPKLLIYSASYRKRGVPSRFSGSGSGTDFTLTISSLQPEDFATYYCHQYYTYPLFTFGQGTKLEIKRTVAAPSVFIFPPSDEQLKSGTASVVCLLNNFYPREAKVQWKVDNALQSGNSQESVTEQDSKDSTYSLSSTLTLSKADYEKHKVYACEVTHQGLSSPVTKSFNRGECGGGGSGGGGSGGGGSGGGGSEVQLVESGGGLVQPGGSLRLSCAASGYSFTGYTMNWVRQAPGKGLEWVALINPYKGVSTYNQKFKDRFTISVDKSKNTAYLQMNSLRAEDTAVYYCARSGYYGDSDWYFDVWGQGTLVTVSSASVAAPSVFIFPPSDEQLKSGTASVVCLLNNFYPREAKVQWKVDNALQSGNSQESVTEQDSKDSTYSLSSTLTLSKADYEKHKVYACEVTHQGLSSPVTKSFNRGEC
# chain 3: not shown
# chain 4: DKTHTCPPCPAPEAAGGPSVFLFPPKPKDTLMISRTPEVTCVVVDVSHEDPEVKFNWYVDGVEVHNAKTKPREEQYNSTYRVVSVLTVLHQDWLNGKEYKCKVSNKALGAPIEKTISKAKGQPREPQVCTLPPSRDELTKNQVSLSCAVKGFYPSDIAVEWESNGQPENNYKTTPPVLDSDGSFFLVSKLTVDKSRWQQGNVFSCSVMHEALHNHYTQKSLSLSPGK
# Assays:
# [1] = target: human MCSP expressed on tumor cells (Colo-38, WM266-4, MV-3) (human, UniProt Q6UVK1 30-2322); test: cell-based or functional assay
# human MCSP expressed on tumor cells (Colo-38, WM266-4, MV-3), sequence (Q6UVK1 30-2322): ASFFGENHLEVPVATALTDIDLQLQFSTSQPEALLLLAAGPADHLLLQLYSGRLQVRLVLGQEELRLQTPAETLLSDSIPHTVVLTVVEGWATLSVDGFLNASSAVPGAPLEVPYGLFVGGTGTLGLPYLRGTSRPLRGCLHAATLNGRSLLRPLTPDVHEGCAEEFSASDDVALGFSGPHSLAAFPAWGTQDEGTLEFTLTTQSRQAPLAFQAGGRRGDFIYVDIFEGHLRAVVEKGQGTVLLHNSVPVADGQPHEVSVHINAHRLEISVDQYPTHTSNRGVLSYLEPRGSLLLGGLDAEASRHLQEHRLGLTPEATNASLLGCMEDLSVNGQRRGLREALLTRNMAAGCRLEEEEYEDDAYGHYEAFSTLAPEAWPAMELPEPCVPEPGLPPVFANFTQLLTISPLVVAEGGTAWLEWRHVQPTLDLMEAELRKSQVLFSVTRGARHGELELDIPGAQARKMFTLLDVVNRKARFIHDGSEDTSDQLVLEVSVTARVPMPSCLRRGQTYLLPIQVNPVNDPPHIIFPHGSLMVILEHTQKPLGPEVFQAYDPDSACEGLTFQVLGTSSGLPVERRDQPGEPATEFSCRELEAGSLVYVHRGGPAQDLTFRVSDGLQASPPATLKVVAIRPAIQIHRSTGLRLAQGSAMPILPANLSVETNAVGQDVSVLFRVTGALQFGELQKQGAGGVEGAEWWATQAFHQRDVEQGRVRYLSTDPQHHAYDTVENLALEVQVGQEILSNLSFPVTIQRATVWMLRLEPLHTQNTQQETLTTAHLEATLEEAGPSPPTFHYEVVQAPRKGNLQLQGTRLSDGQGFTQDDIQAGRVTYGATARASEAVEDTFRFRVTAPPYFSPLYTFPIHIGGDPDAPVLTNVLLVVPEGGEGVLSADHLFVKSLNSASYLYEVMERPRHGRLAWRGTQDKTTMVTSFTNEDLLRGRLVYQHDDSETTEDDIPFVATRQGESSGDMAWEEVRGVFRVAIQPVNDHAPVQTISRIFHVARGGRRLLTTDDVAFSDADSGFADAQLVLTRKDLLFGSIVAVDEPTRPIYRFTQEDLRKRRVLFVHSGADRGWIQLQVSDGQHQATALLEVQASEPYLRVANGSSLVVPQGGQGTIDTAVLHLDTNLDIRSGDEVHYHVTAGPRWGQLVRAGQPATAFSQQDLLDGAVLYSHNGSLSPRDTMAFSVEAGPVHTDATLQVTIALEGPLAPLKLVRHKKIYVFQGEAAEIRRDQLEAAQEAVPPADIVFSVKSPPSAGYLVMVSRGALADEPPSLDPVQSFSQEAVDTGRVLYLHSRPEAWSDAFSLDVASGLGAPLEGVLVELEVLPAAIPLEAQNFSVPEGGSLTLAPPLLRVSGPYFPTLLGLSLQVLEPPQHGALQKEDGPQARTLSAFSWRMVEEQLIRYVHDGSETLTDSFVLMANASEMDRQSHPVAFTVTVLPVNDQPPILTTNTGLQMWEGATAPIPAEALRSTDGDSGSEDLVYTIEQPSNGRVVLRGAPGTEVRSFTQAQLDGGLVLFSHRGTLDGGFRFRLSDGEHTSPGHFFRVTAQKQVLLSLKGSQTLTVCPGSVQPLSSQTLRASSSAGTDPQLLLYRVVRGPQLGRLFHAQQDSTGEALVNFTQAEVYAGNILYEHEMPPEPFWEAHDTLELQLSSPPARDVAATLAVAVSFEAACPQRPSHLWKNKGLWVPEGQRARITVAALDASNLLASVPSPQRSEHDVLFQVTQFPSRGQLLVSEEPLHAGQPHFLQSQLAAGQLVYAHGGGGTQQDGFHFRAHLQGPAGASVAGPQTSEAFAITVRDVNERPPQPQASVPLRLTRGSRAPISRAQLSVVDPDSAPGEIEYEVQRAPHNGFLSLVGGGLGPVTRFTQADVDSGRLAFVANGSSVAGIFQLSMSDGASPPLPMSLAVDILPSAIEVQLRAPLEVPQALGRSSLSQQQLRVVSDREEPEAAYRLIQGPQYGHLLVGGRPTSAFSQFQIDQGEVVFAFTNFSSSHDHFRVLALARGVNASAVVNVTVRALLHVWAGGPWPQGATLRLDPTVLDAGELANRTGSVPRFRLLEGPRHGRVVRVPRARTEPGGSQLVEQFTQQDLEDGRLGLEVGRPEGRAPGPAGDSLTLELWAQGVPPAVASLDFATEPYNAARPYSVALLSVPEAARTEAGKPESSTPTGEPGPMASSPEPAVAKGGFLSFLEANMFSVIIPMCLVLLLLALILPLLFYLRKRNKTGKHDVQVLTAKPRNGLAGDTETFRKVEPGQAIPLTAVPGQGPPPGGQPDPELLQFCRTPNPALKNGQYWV
# [2] = target: T1, human CEA expressed on tumor cells …; test: cell-based or functional assay
Binder,"EC50 of killing (LDH release) of MV-3 cells, human PBMCs, E:T 10:1, 27 h [1] [pM]","EC50 of killing (LDH release) of WM266-4 cells, human PBMCs, E:T 10:1, 26 h [1] [pM]","EC50 of apoptosis induction (LDH release) in LS-174T cells, human PBMCs, E:T 10:1, 28 h [2] [pM]","EC50 of apoptosis induction (LDH release) in MC38-huCEA cells, human PBMCs, E:T 10:1, 24 h [2] [pM]","EC50 of apoptosis induction (LDH release) in MKN-45 cells, human PBMCs, E:T 10:1, 28 h [2] [pM]"
B1,~82.2,16.8,,,
B2,,,1560,~3200,213
